From patent publication US11827690B2, “ApoC-II mimetic peptides” (THE UNITED STATES OF AMERICA, as represented by the …, priority 2017, dated 2023)
Each block holds one substance with its values, some of them ahead of it. Non-standard residues stand in square brackets, D forms with d. No end group written: not given here. *: point of attachment. Stearoyl = CCCCCCCCCCCCCCCCCC(=O)*; Palmitoyl = CCCCCCCCCCCCCCCC(=O)*; Nle = CCCC[C@H](N)C(=O)O; Aib = CC(C)(N)C(=O)O

Key:
bovine LPL [1] = target: T1, bovine LPL (Bos taurus, UniProt P11151); assay: in vitro LPL assay using apoC-II deficient patient sera as substrate; type: biochemical; details: for effect of lipidation on ability of C2thirdhelix to promote TG hydrolysis: FIG. 9; for promoting TG hydrolysis in the presence of LPL: FIG. 6; for LPL activation / TG hydrolysis: FIG. 52
T1 sequence (P11151 29-478): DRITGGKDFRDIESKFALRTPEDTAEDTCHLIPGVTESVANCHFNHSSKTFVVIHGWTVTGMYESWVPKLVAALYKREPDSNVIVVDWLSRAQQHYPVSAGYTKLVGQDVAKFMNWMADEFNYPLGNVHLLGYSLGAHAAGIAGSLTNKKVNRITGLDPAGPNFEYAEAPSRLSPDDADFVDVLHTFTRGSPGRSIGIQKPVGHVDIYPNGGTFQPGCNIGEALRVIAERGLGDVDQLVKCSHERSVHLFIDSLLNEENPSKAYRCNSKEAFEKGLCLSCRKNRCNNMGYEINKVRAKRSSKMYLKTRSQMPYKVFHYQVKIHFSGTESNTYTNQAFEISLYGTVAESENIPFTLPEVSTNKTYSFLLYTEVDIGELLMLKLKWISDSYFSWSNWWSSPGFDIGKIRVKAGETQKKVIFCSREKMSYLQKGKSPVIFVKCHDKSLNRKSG
Method: (§1) Preparation of LPL: frozen stock of 10 μL of 0.5 mg/mL bovine LPL was used and diluted 1:100 (10 μL+990 μL of PBS).
Preparation of 20% Intralipid: 2000 mg/dL TG Intralipid was used to prepare 3 mg/dL TG Intralipid by diluting 1.5 μL of the stock with 998.5 μL PBS, or by diluting the stock 1:10 first and then mixing 15 μL of the diluted stock with 985 μL PBS. When apoC-II deficient human serum was used as a substrate, a frozen 10 μL aliquot of 1711 mg/dL (TG) was diluted by adding 990 μL PBS (1:100 dilution).
(§2) Preparation of free fatty acid (NEFA) assay: NEFA reagents were purchased from Wako Diagnostics, Wako Life Sciences, Inc. Reagent A was prepared by mixing Coloring Reagent A with Solvent A (225 μL per well). Reagent B was prepared by mixing Coloring Reagent B with Solvent B (75 μL per well). 5 nmoL oleic acid standard was prepared by diluting 20 μL of 1 mM oleic acid stock (WAKO NEFA standard solution) with 180 μL of 0.2% BSA.
(§3) LPL activity assay: 10 μL of Intralipid, human plasma sample, or mouse plasma sample was added in each well using repeater pipette. 10 μL (or 15 μL in the wells with no LPL control) of PBS and 10 μL of 1% BSA was added in each well using repeater pipette. 10 μL of peptides were added to corresponding wells in vertical triplicates (lowest concentration is on a left, highest is on the right). The plate was spun down at 1000 RPM for 10 seconds to mix and to remove the solutions from the wall of each well. The plate was put on ice and 5 μL of LPL was added using repeater pipette. The plate was spun down again at 1000 RPM for 10 seconds. The plate was covered and put back on ice for an incubation of 30 min. The plate was then moved to 37° C. and incubated for 1 hour.
(§4) Free fatty acids (NEFA) assay: 45 μL of 5 nmoL standard and 0 nmoL control (0.2% BSA) were added to corresponding wells. 225 μL of reagent A was added in each well using the reagent tray and 12-channel pipette. The plate was incubated for 10 min before 75 μL of reagent B was added to each well using the reagent tray and 12-channel pipette. The plate was not covered due to the high volume. The absorbance at 550 nm and 660 nm was measured.

apoC-II knockout mice = assay: plasma lipids of apoC-II knockout mice after peptide injection; type: in vivo
Method: C57Bl/6 mice (wild-type), apoC-II knockout (apoC-II KO) mice, and apoC-III transgenic mice were used for in vivo study. The C57Bl/6 mice (wild-type) were purchased from Taconic Biosciences Inc. The apoC-II KO mice were created as described in Sakurai et al., J Pharmacol Exp Ther 356:341-353, 2016. The apoC-III transgenic mice were generated by overexpressing human apoC-III in C57Bl/6 mice. See Qu et al., J. Lipid Res. 48:1476-1487, 2007.
Mice were fasted overnight (approximately 12 hours) before the study and 6 hours during the study, the next day. The apoC-II mimetic peptides were synthetically produced and free of biological contamination (not available as FDA approved compounds/treatment). […] W.) administered either subcutaneous injection (S.Q. or S.C.), intraperitoneal injection (I.P.) or intravenous injection (I.V.) (in a sterile, pharmaceutical grade PBS solution at a volume ≤200 μL) as described in Sakurai et al., J Pharmacol Exp Ther 356:341-353, 2016.

bovine LPL [2] = target: T1, bovine LPL; assay: in vitro LPL assay using hypertriglyceridemia patient sera as substrate; type: biochemical; details: patient sera TG about 1000 mg/dL to about 1700 mg/dL, FIGS. 15A-D
Method: as §1, §2, §3, §4

[3] = system: VLDL isolated from human plasma; assay: ApoC-III displacement study in VLDL isolated from human plasma; type: binding; details: SDS PAGE
Method: VLDL or chylomicrons isolated from human plasma were incubated with an apoC-II mimetic peptide for 1 hour at 37° C. and washed 3 times with PBS using spin filter with 100 kDa cutoff membrane. […] ApoC-I, apoC-II, apoC-III, and apoE bands were identified by their corresponding size.

[4] = concentrations from 100 pM to 10 μM, FIG. 12
[5] = 0.25 μmol/kg of body weight intraperitoneal, FIG. 24

Substance: AKC18STYTGIFTDQVLSVLKGEE (AK(Stearoyl)STYTGIFTDQVLSVLKGEE) [C2thirdhelixStearylpos2]
- effect of lipidation on ability of C2thirdhelix to promote TG hydrolysis (bovine LPL [1]): lipidation enhanced the ability of C2thirdhelix to promote TG hydrolysis

Substance: AMSTYTGIFTDQVLSVLKC18GEE (AMSTYTGIFTDQVLSVLK(Stearoyl)GEE) [C2thirdhelixStearylpos17]
- effect of lipidation on ability of C2thirdhelix to promote TG hydrolysis (bovine LPL [1]): lipidation enhanced the ability of C2thirdhelix to promote TG hydrolysis

Substance: C18AMSTYTGIFTDQVLSVLKGEE (Stearoyl-AMSTYTGIFTDQVLSVLKGEE) [C2thirdhelixStearylpos1]
- effect of lipidation on ability of C2thirdhelix to promote TG hydrolysis (bovine LPL [1]): lipidation enhanced the ability of C2thirdhelix to promote TG hydrolysis

Substance: C18DYLKAVFEKKC18RDLYSKFTAAnLSTYTGIFTDQVLSVLKGEE (Stearoyl-DYLKAVFEKK(Stearoyl)RDLYSKFTAA[Nle]STYTGIFTDQVLSVLKGEE) [bi-acyl-Delta4]
- promoting TG hydrolysis in the presence of LPL (bovine LPL [1]): capable of promoting TG hydrolysis in the presence of LPL

Substance: C18DYLKAVFEKLRDLYSKFTAAnLSTYTGIFTDQVLSVLKGEE (Stearoyl-DYLKAVFEKLRDLYSKFTAA[Nle]STYTGIFTDQVLSVLKGEE) [mono-acyl-Delta4]
- promoting TG hydrolysis in the presence of LPL (bovine LPL [1]): capable of promoting TG hydrolysis in the presence of LPL

Substance: DKVKEFLSEYWEKAKEFAPAVSTYTGIFTDQVLSVLKGEE [Delta13-31-PV]
- LPL activation / TG hydrolysis (bovine LPL [1]): promoted TG hydrolysis in vitro in a dose-dependent manner

Substance: DYLKAVFEKKC18RDLYSKFTPAMSTYTGIFTDQVLSVLKGEE (DYLKAVFEKK(Stearoyl)RDLYSKFTPAMSTYTGIFTDQVLSVLKGEE) [Delta4b-2]
- TG hydrolysis (bovine LPL [1]; [4]): promoted TG hydrolysis in a dose-dependent manner

Substance: DYLKAVFEKLRDLYSKFFPAMSTYTGIFTDQVLSVLKGEE [Delta4b T18F]
- TG hydrolysis (bovine LPL [1]; [4]): promoted TG hydrolysis in a dose-dependent manner

- TG hydrolysis (bovine LPL [1]; peptide concentrations from 10 pM to 100 μM, FIG. 13): promoted TG hydrolysis
Substance: DYLKAVFEKLRDLYSKFTAAKC16STYTGIFTDQVLSVLKGEE (DYLKAVFEKLRDLYSKFTAAK(Palmitoyl)STYTGIFTDQVLSVLKGEE) [Delta4c]

Substance: DYLKAVKC18EKLRDLYSKFTPAMSTYTGIFTDQVLSVLKGEE (DYLKAVK(Stearoyl)EKLRDLYSKFTPAMSTYTGIFTDQVLSVLKGEE) [Delta4b-1]
- TG hydrolysis (bovine LPL [1]; [4]): promoted TG hydrolysis in a dose-dependent manner

- LPL activation / TG hydrolysis (bovine LPL [1]): activated LPL in vitro
Substance: DYLKEVAibEKLRDLYEKAibFPAVSTYTGIFTDQVLSVLKGEE (DYLKEV[Aib]EKLRDLYEK[Aib]FPAVSTYTGIFTDQVLSVLKGEE) [Delta6T18F-PV-AIB7,17]

- LPL activation / TG hydrolysis (bovine LPL [1]): activated LPL in vitro
Substance: DYLKEVFEKLRDLYEKFFPAVSTYTGIFTDQVLSVLKGEE [Delta6T18F-PV]
- time of maximum reduction of plasma TG (apoC-II knockout mice; 0.1 μmol/kg intraperitoneally, after the peptide injection): about 6 hours
- plasma TG (apoC-II knockout mice; 0.1 μmol/kg of body weight intraperitoneally, FIG. 53): rapid reduction of plasma TG

- LPL activation (bovine LPL [2]): activated LPL in vitro
Substance: DYLKEVFEKLRDLYEKFTAALSTYTGIFTDQVLSVLKGEE (not fully specified) [Delta6L]

Substance: DYLKEVFEKLRDLYEKFTAAnLSTYTGIFTDQVLSVLKGEENH2 (DYLKEVFEKLRDLYEKFTAA[Nle]STYTGIFTDQVLSVLKGEE-NH2; N-terminus assumed; SMILES CCCC[C@H](NC(=O)[C@H](C)NC(=O)[C@H](C)NC(=O)[C@@H](NC(=O)[C@H](Cc1ccccc1)NC(=O)[C@H](CCCCN)NC(=O)[C@H](CCC(=O)O)NC(=O)[C@H](Cc1ccc(O)cc1)NC(=O)[C@H](CC(C)C)NC(=O)[C@H](CC(=O)O)NC(=O)[C@H](CCCNC(=N)N)NC(=O)[C@H](CC(C)C)NC(=O)[C@H](CCCCN)NC(=O)[C@H](CCC(=O)O)NC(=O)[C@H](Cc1ccccc1)NC(=O)[C@@H](NC(=O)[C@H](CCC(=O)O)NC(=O)[C@H](CCCCN)NC(=O)[C@H](CC(C)C)NC(=O)[C@H](Cc1ccc(O)cc1)NC(=O)[C@@H](N)CC(=O)O)C(C)C)[C@@H](C)O)C(=O)N[C@@H](CO)C(=O)N[C@H](C(=O)N[C@@H](Cc1ccc(O)cc1)C(=O)N[C@H](C(=O)NCC(=O)N[C@H](C(=O)N[C@@H](Cc1ccccc1)C(=O)N[C@H](C(=O)N[C@@H](CC(=O)O)C(=O)N[C@@H](CCC(N)=O)C(=O)N[C@H](C(=O)N[C@@H](CC(C)C)C(=O)N[C@@H](CO)C(=O)N[C@H](C(=O)N[C@@H](CC(C)C)C(=O)N[C@@H](CCCCN)C(=O)NCC(=O)N[C@@H](CCC(=O)O)C(=O)N[C@@H](CCC(=O)O)C(N)=O)C(C)C)C(C)C)[C@@H](C)O)[C@@H](C)CC)[C@@H](C)O)[C@@H](C)O) [Delta6-NH]
- apoC-III displacement in VLDL [3]: capable of displacing apoC-III
- plasma TG (apoC-II knockout mice; [5]): significant reduction of plasma TG

- LPL activation (bovine LPL [2]): activated LPL in vitro
Substance: DYLKEVFEKLRDLYEKFTPALSTYTGIFTDQVLSVLKGEE [Delta6PL]

- apoC-III displacement in VLDL [3]: capable of displacing apoC-III
Substance: DYLKEVFEKLRDLYEKKC18TAAnLSTYTGIFTDQVLSVLKGEE (DYLKEVFEKLRDLYEKK(Stearoyl)TAA[Nle]STYTGIFTDQVLSVLKGEE) [Delta6b-A]
- plasma TG (apoC-II knockout mice; [5]): significant reduction of plasma TG

- apoC-III displacement in VLDL [3]: capable of displacing apoC-III
Substance: DYLKEVFEKLRDLYEKKC18TPAnLSTYTGIFTDQVLSVLKGEE (DYLKEVFEKLRDLYEKK(Stearoyl)TPA[Nle]STYTGIFTDQVLSVLKGEE) [Delta6b-P]
- plasma TG (apoC-II knockout mice; [5]): significant reduction of plasma TG
